In patent publication US20230203142A1 (published 2023):

How the values were obtained:
[1] = target: T1, human NDPK-A (nucleoside diphosphate kinase A), full-length recombinant (human, UniProt P15531 2-152); experiment: MST, NDPK labelled, FABP4 unlabelled
T1 construct: Bought protein (Acro Biosystems NM1-H5147); It was fluorescently labelled (lysine, cysteine or His-tag dye) in MST; also called nm23
Experimental: (§1) Human NDPK-A (Acro Biosystems, product number NM1-H5147) was prepared in PBS to a stock concentration of 0.4 mg/ml. Human ADK (Novus Biologicals, product number NBP1-44382 or R&D Systems, product number 8024-AK-025) was purchased at a stock concentration of 0.5 mg/ml and buffer exchanged into PBS. Protein concentration used for labeling was 20 uM. Experiments were conducted independently with each of NDPK and ADK labeled with each kit (i.e., experiments were performed with lysine-labeled, cysteine-labeled, and His-labeled versions of each protein to confirm the site of labeling was not influencing detected interaction). […] Concentration of labeled proteins ranged from 12 nM to 20 nM, as determined by MST quantification to obtain a fluorescence intensity of ˜350 from each capillary tube. […]
(§2) To further confirm the formation of the proposed complex, GST-tagged NDPK (GST-NDPK) was generated and immunoprecipitation experiments were performed to investigate the interaction of each proposed component with NDPK. Interaction between all three components of the proposed complex, as well as with the complex and a-Ab (FIG. 4M) were readily identified.

[2] = target: T2, human ADK (adenosine kinase), recombinant (human, UniProt P55263 2-362); experiment: MST, one-to-one recombinant proteins, ADK labelled
T2 construct: Bought protein (Novus Biologicals NBP1-44382 or R&D Systems 8024-AK-025); It was fluorescently labelled in MST
Experimental: Additionally, one-to-one recombinant protein interaction assays were performed using Microscale Thermophoresis (MST) to independently validate the interactions between each of the proposed complex components. MST is a technology for the interaction analysis of biomolecules. MST is the directed movement of particles in a microscopic temperature gradient. Any change of the hydration shell of biomolecules due to changes in their structure/conformation results in a relative change of the movement along the temperature gradient and is used to determine binding affinities. MST allows measurement of interactions directly in solution without the need of immobilization to a surface (immobilization-free technology).
To perform this technique, proteins were desalted and buffer exchanged into PBS prior to labeling. […] Experiments were conducted independently with each of NDPK and ADK labeled with each kit (i.e., experiments were performed with lysine-labeled, cysteine-labeled, and His-labeled versions of each protein to confirm the site of labeling was not influencing detected interaction). […] Concentration of labeled proteins ranged from 12 nM to 20 nM, as determined by MST quantification to obtain a fluorescence intensity of ˜350 from each capillary tube. […]

NDPK-A peptide 8 = target: T3, NDPK-A peptide 8 (human); experiment: MST, His-tagged peptide; column head prints 'Binding Affinity (Ka)'
T3 peptide: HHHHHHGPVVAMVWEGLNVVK

NDPK-A peptide 3 = target: T4, NDPK-A peptide 3 (human); experiment: as above
T4 peptide: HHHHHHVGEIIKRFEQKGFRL

NDPK-A peptide 2 = target: T5, NDPK-A peptide 2 (human); experiment: as above
T5 peptide: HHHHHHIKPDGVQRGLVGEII

[3] = target: T1, human NDPK-A (nucleoside diphosphate …); experiment: MST, His-tagged full-length NDPK-A; column head prints 'Binding Affinity (Ka)'
NDPK-A peptide 4 = target: T6, NDPK-A peptide 4 (human); experiment: MST, His-tag-labelled peptide against a-Ab
T6 peptide: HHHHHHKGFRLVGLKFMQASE

NDPK-A peptide 10 = target: T7, NDPK-A peptide 10 (human); experiment: MST, His-tag-labelled peptide against a-Ab
T7 peptide: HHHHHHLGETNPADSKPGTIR

NDPK-A peptide 12 = target: T8, NDPK-A peptide 12 (human); experiment: MST, His-tag-labelled peptide against a-Ab
T8 peptide: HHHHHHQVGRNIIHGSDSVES

NDPK-A peptide 11 = target: T9, NDPK-A peptide 11 (human); experiment: MST, His-tag-labelled peptide against a-Ab
T9 peptide: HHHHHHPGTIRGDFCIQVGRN

NDPK-A peptide 13 = target: T10, NDPK-A peptide 13 (human); experiment: MST, His-tag-labelled peptide against a-Ab
T10 peptide: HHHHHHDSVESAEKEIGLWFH

NDPK-A peptide 7 = target: T11, NDPK-A peptide 7 (human); experiment: MST, His-tag-labelled peptide against a-Ab
T11 peptide: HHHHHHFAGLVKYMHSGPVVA

NDPK-A peptide 14 = target: T12, NDPK-A peptide 14 (human); experiment: MST, His-tag-labelled peptide against a-Ab
T12 peptide: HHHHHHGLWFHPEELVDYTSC

NDPK-A peptide 1 = target: T13, NDPK-A peptide 1 (human); experiment: MST, His-tag-labelled peptide against a-Ab
T13 peptide: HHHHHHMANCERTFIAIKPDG

NDPK-A peptide 15 = target: T14, NDPK-A peptide 15 (human); experiment: MST, His-tag-labelled peptide against a-Ab
T14 peptide: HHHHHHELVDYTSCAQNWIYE

NDPK-A peptide 9 = target: T15, NDPK-A peptide 9 (human); experiment: MST, His-tag-labelled peptide against a-Ab
T15 peptide: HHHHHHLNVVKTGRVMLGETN

NDPK-A peptide 6 = target: T16, NDPK-A peptide 6 (human); experiment: MST, His-tag-labelled peptide against a-Ab
T16 peptide: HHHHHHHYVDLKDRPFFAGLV

NDPK-A peptide 5 = target: T17, NDPK-A peptide 5 (human); experiment: MST, His-tag-labelled peptide against a-Ab
T17 peptide: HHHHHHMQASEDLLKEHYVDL

[4] = target: T2, human ADK (adenosine kinase), …; experiment: MST, ADK labelled, antibody unlabelled
Experimental: To perform this technique, proteins were desalted and buffer exchanged into PBS prior to labeling. Desalting was performed using Zeba Spin Desalting Columns (Thermo Scientific, product number 89882, 0.5 ml volume) in a volume of 0.1 ml according to the manufacturer's instructions. Human NDPK-A (Acro Biosystems, product number NM1-H5147) was prepared in PBS to a stock concentration of 0.4 mg/ml. Human ADK (Novus Biologicals, product number NBP1-44382 or R&D Systems, product number 8024-AK-025) was purchased at a stock concentration of 0.5 mg/ml and buffer exchanged into PBS. Protein concentration used for labeling was 20 uM. Experiments were conducted independently with each of NDPK and ADK labeled with each kit (i.e., experiments were performed with lysine-labeled, cysteine-labeled, and His-labeled versions of each protein to confirm the site of labeling was not influencing detected interaction). Labeling kits were: Monolith Protein Labeling Kit RED-NETS (Amine Reactive; Product number MO-L001), Monolith Protein Labeling Kit RED-MALEIMIDE (Cysteine Reactive; Product number: MO-L004), and Monolith His-Tag Labeling Kit RED-tris-NTA (Product number: MO-L008). […] Concentration of labeled proteins ranged from 12 nM to 20 nM, as determined by MST quantification to obtain a fluorescence intensity of ˜350 from each capillary tube. […]

[5] = target: T1, human NDPK-A (nucleoside diphosphate …); experiment: MST, NDPK labelled, antibody unlabelled
Experimental: as §1, §2

T1 sequence (P15531 other isoform, or with tags, fused parts or gaps limits assumed): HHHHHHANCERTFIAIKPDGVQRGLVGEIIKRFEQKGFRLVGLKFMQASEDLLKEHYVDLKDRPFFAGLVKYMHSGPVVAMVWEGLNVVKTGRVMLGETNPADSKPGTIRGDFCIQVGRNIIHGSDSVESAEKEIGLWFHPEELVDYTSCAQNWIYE
T2 sequence (P55263 2-362 limits assumed): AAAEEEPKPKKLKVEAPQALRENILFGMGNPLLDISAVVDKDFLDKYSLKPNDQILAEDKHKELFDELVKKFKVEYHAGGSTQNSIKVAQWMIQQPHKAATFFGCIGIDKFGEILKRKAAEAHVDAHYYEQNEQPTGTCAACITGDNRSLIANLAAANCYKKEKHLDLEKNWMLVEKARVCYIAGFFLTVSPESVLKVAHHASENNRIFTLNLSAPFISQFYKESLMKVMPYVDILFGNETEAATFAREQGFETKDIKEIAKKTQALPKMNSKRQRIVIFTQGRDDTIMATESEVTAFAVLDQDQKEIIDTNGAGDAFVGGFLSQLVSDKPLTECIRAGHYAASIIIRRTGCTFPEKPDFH

Binder | Kd [1] [nM] | Kd [2] [nM] | Kd (NDPK-A peptide 8) [nM] | Kd (NDPK-A peptide 3) [nM] | Kd (NDPK-A peptide 2) [nM] | Kd [3] [nM] | binding result (NDPK-A peptide 4) | binding result (NDPK-A peptide 10) | binding result (NDPK-A peptide 12) | binding result (NDPK-A peptide 11) | binding result (NDPK-A peptide 13) | binding result (NDPK-A peptide 7) | binding result (NDPK-A peptide 14) | binding result (NDPK-A peptide 1) | binding result (NDPK-A peptide 15) | binding result (NDPK-A peptide 9) | binding result (NDPK-A peptide 6) | binding result (NDPK-A peptide 5) | Kd [4] [nM] | Kd [5] [nM]
recombinant human FABP4 (fatty acid binding protein 4) (other, Recombinant human FABP4 produced in-house; also called aP2; hormonal FABP4) CDAFVGTWKLVSSENFDDYMKEVGVGFATRKVAGMAKPNMIISVNGDVITIKSESTFKNTEISFILGQEFDEVTADDRKVKSTITLDGGVLVHVQKWDGKSTTIKRKREDDKLVVECVMKGVTSTRVYERA | ~700 | ~7 |  |  |  |  |  |  |  |  |  |  |  |  |  |  |  |  |  | 
CA33 (a-Ab) monoclonal antibody (antibody, Described as a monoclonal antibody; also called active antibody) heavy: QSVEESGGRLVTPGTPLTLTCTVSGFSLSTYYMSWVRQAPGKGLEWIGIIYPSGSTYCASWAKGRFTISKASTTVDLKITSPTTEDTATYFCARPDNDGTSGYLSGFGLWGQGLVTVSSAKTTPPSVYPLAPGSAAQTNSMVTLGCLVKGYFPEPVTVTWNSGSLSSGVHTFPAVLQSDLYTLSSSVTVPSSTWPSETVTCNVAHPASSTKVDKKIVPRDC light: DVVMTQTPASVSEPVGGTVTIKCGASEDISRYLVWYQQKPGQPPKRLIYKASTLASGVPSRFKGSGSGTDFTLTISDLECDDAATYYCQCTYGTYAGSFFYSFGGGTEVVVERTDAAPTVSIFPPSSEQLTSGGASVVCFLNNFYPKDINVKWKIDGSERQNGVLNSWTDQDSKDCTYSMSSTLTLTKDEYERHNSYTCEATHKTSTSPIVKSFNRNEC |  |  | 69.6 | 8980 | 15900 | 116 | no binding | no binding | no binding | no binding | no binding | no binding | no binding | no binding | no binding | no binding | no binding | no binding | ~1900 | ~150
